pKd: −log10 of the molar value.
Biological target: human type 1 insulin-like growth factor receptor (human) (UniProt P08069)
Test: competitive displacement assay, plate capture of solubilized receptor (tracer for IGF-1R not stated)

pKd: 8.30
Substance: KP-insulin ([Lys^B28, Pro^B29]-insulin, insulin Lispro) (ligand; other documents disagree on this pair)

Reference: patent publication US20190382463A1
